How the values were obtained:
BBS11/TRIM32, endogenous = biological target: T1, BBS11/TRIM32, endogenous (human (endogenous in HEK293), UniProt Q13049 1-653); experiment: pull-down; 1 μg purified Flag-NPHP5 mixed with 1 μg purified USP9X, BBS11 or MARCH7 bound to beads, 4°C, 2 h, extensive washing, Western blot; conditions: both partners purified
T1 construct: E3 ubiquitin ligase BBS11/TRIM32, endogenous in HEK293; also called endogenous BBS11; source: endogenous, HEK293 lysate; also immunoprecipitated from HEK293 with anti-BBS11 antibody, 500 mM NaCl washes, kept on beads
T1 sequence (looked up): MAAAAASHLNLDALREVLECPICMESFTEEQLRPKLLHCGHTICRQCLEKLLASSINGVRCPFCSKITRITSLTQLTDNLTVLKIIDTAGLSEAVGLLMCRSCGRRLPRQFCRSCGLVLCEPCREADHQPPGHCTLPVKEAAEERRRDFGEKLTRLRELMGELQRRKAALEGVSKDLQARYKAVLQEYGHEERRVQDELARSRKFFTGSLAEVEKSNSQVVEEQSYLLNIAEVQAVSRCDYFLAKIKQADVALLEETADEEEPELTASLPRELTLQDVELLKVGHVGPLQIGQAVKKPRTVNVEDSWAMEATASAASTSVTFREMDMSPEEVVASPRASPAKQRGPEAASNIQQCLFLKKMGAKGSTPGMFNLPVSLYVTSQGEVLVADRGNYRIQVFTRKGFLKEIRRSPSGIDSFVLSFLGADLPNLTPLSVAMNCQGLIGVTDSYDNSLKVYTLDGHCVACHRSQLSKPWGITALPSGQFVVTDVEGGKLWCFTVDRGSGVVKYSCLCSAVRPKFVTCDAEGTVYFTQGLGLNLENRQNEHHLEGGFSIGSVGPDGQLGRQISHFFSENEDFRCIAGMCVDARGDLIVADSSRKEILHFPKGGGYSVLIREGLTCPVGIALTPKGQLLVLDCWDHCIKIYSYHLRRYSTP

[1] = biological target: T2, MARCH7/axotrophin, endogenous (human (endogenous in HEK293), UniProt Q9H992 1-704); experiment: as above; conditions: both partners purified
T2 construct: E3 ubiquitin ligase MARCH7/axotrophin, endogenous in HEK293; also called endogenous MARCH7; source: endogenous, HEK293 lysate; also immunoprecipitated from HEK293 with anti-MARCH7 antibody, 500 mM NaCl washes, kept on beads
T2 sequence (looked up): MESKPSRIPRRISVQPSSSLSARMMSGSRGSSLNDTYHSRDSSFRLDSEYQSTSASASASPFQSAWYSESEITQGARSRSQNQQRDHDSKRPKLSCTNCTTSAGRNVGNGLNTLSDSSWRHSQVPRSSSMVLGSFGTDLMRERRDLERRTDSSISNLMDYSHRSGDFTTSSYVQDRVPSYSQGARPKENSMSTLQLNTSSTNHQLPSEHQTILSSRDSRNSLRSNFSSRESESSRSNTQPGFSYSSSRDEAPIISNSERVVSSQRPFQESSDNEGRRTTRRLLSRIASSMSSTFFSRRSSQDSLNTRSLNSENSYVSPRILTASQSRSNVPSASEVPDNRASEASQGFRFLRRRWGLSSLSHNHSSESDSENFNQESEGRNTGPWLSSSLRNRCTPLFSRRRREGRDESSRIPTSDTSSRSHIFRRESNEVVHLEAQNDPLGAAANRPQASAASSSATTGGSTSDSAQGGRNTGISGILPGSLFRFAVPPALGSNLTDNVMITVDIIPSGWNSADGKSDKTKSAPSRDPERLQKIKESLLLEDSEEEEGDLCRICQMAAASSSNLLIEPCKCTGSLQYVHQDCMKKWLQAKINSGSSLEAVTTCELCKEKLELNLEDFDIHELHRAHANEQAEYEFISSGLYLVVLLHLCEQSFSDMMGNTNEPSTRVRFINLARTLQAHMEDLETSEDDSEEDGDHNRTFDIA

[2] = biological target: T3, GFP-USP9X wild type (mouse) (mouse, UniProt P70398 1-2559); experiment: co-IP; anti-Flag immunoprecipitation from lysates of HEK293 cells expressing Flag-NPHP5 or its fragments (alone or with GFP-tagged partner), Western blot; conditions: partners not purified
T3 construct: mouse USP9X cDNA (from S. Wood) sub-cloned into pEGFP-C1; pEGFP-C1 is expected to place EGFP at the N-terminus (surmise); also called pEGFP-C1-USP9X; purified USP9X; source: HEK293, transfected, in lysate; also purified from HEK293 (anti-GFP immunoprecipitation, 500 mM NaCl washes, kept on beads)
T3 sequence (P70398 whole entry, the tested form may be a part): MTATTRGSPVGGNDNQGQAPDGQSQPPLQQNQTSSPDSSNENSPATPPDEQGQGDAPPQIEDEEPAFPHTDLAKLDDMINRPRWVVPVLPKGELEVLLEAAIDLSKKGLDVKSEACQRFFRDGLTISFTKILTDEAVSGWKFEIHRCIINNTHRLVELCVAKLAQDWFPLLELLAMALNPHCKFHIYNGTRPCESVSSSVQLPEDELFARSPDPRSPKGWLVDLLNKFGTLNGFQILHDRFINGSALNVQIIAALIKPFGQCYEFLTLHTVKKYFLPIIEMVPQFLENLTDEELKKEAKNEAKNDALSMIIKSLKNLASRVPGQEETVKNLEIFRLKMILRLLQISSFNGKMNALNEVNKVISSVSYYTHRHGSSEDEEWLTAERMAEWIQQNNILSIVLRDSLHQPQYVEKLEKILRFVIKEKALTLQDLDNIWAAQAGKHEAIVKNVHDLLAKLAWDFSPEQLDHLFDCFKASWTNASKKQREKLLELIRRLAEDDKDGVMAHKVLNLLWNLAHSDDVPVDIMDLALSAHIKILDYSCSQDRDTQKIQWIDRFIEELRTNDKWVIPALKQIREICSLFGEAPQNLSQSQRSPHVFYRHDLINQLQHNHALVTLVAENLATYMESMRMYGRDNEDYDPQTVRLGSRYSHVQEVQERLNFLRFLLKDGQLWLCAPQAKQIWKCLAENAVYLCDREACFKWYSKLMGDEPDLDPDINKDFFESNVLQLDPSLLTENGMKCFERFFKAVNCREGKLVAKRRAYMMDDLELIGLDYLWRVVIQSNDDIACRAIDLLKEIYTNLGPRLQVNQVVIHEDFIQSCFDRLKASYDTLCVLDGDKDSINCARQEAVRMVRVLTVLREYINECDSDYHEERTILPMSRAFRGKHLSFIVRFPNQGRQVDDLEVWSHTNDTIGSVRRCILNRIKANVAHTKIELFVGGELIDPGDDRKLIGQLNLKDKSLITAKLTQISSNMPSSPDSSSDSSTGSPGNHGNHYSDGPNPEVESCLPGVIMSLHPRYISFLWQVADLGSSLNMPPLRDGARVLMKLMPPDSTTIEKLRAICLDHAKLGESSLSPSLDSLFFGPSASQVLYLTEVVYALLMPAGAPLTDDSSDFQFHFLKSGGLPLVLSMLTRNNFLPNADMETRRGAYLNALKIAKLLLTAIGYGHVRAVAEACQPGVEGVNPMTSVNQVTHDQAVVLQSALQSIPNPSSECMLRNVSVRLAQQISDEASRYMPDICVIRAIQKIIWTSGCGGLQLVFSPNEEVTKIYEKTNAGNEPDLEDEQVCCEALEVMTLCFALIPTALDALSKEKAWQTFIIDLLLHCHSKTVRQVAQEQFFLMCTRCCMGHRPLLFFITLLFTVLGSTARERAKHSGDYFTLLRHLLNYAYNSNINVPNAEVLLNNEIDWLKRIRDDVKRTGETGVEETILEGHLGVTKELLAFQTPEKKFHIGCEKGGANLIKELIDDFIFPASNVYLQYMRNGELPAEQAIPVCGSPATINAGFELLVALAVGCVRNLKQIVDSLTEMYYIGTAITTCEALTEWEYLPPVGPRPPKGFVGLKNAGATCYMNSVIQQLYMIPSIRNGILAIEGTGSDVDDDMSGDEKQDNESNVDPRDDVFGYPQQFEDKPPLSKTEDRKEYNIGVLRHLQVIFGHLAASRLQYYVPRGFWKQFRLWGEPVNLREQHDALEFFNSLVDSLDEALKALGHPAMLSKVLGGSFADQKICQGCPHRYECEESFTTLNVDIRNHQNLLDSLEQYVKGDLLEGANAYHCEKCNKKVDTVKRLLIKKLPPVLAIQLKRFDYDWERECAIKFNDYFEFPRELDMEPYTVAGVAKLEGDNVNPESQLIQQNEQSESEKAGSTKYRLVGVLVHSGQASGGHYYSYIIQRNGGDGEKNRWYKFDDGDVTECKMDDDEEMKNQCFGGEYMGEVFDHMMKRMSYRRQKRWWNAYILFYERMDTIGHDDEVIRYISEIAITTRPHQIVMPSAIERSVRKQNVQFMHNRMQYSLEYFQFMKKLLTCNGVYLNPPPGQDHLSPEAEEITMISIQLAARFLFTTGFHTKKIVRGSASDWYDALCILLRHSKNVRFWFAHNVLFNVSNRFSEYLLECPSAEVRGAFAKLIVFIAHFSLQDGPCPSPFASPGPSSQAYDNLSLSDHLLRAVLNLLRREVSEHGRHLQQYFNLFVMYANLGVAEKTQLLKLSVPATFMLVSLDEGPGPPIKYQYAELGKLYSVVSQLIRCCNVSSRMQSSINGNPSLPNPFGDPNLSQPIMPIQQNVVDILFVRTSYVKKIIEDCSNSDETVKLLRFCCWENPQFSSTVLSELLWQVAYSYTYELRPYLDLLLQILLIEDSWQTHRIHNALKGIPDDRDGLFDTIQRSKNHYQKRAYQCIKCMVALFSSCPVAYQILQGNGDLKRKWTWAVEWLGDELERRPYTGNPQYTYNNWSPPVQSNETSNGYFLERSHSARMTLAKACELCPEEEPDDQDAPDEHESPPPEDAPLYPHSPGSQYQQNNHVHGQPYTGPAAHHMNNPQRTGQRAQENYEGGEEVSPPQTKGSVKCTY

[3] = biological target: T4, GFP-USP9X catalytically inactive mutant (C1566S) (mouse) (mouse, UniProt P70398 1-2559, C1566S); experiment: as above; conditions: partners not purified
T4 construct: mouse USP9X C1566S cDNA (from S. Wood) sub-cloned into pEGFP-C1; pEGFP-C1 is expected to place EGFP at the N-terminus (surmise); also called GFP-USP9X mutant (C1566S); pEGFP-C1-USP9X(C1566S); source: HEK293, transfected, in lysate; also purified from HEK293 (anti-GFP immunoprecipitation, 500 mM NaCl washes, kept on beads)
T4 sequence (P70398 whole entry C1566S): as the sequence (P70398 whole entry, the tested form may be a part) above, with C1566S counted along it

Measured: binding result

B1: Flag-NPHP5 (nephrocystin-5), full length 1-598 (natural protein, UniProt Q15051 1-598, looked up)
chain: MKPTGTDPRILSIAAEVAKSPEQNVPVILLKLKEIINITPLGSSELKKIKQDIYCYDLIQYCLLVLSQDYSRIQGGWTTISQLTQILSHCCVGLEPGEDAEEFYNELLPSAAENFLVLGRQLQTCFINAAKAEEKDELLHFFQIVTDSLFWLLGGHVELIQNVLQSDHFLHLLQADNVQIGSAVMMMLQNILQINSGDLLRIGRKALYSILDEVIFKLFSTPSPVIRSTATKLLLLMAESHQEILILLRQSTCYKGLRRLLSKQETGTEFSQELRQLVGLLSPMVYQEVEEQKLHQAACLIQAYWKGFQTRKRLKKLPSAVIALQRSFRSKRSKMLLEINRQKEEEDLKLQLQLQRQRAMRLSRELQLSMLEIVHPGQVEKHYREMEEKSALIIQKHWRGYRERKNFHQQRQSLIEYKAAVTLQRAALKFLAKCRKKKKLFAPWRGLQELTDARRVELKKRVDDYVRRHLGSPMSDVVSRELHAQAQERLQHYFMGRALEERAQQHREALIAQISTNVEQLMKAPSLKEAEGKEPELFLSRSRPVAAKAKQAHLTTLKHIQAPWWKKLGEESGDEIDVPKDELSIELENLFIGGTKPP
notes: also called IQCB1; source: HEK293, transfected, in lysate; also purified from HEK293 (anti-Flag immunoprecipitation, 500 mM NaCl washes, eluted with Flag peptide)
binds: all assays above
